Columns and labels:
[1] = molecular target: HLA-B*27:05; assay: IEDB peptide-MHC binding, purified MHC/direct/fluorescence; filed as Kd, often an IC50 or EC50 that approximates it; ≥ and ≤ were set here for values at or beyond the usual limits of such assays
[2] = molecular target: HLA-B*08:02; assay: as above
[3] = molecular target: HLA-A*02:01; assay: as above
[4] = molecular target: HLA-B*15:17; assay: as above
[5] = molecular target: HLA-B*40:01; assay: as above
[6] = molecular target: HLA-A*01:01; assay: as above
[7] = molecular target: HLA-B*57:01; assay: as above
[8] = molecular target: HLA-B*48:01; assay: as above
[9] = molecular target: HLA-A*26:01; assay: as above
[10] = molecular target: HLA-A*26:02; assay: as above; details: source organism: Salmonella enterica subsp. enterica serovar Typhimurium str. LT2
[11] = molecular target: HLA-B*15:09; assay: as above; details: source organism: Salmonella enterica subsp. enterica serovar Typhimurium str. LT2
[12] = molecular target: HLA-B*58:01; assay: as above
[13] = molecular target: HLA-A*03:01; assay: as above
[14] = molecular target: HLA-B*38:01; assay: as above
[15] = molecular target: HLA-B*46:01; assay: as above
[16] = molecular target: HLA-A*31:01; assay: as above
[17] = molecular target: HLA-A*11:01; assay: as above
[18] = molecular target: HLA-B*15:01; assay: IEDB peptide-MHC binding, purified MHC/competitive/fluorescence; filed as Kd, often an IC50 or EC50 that approximates it; ≥ and ≤ were set here for values at or beyond the usual limits of such assays; details: source organism: Salmonella enterica subsp. enterica serovar Typhi
[19] = molecular target: HLA-A*69:01; assay: as above; details: source organism: Salmonella enterica subsp. enterica serovar Typhi
[20] = molecular target: HLA-B*08:01; assay: as above
[21] = molecular target: HLA-B*18:01; assay: IEDB peptide-MHC binding, purified MHC/direct/fluorescence; filed as Kd, often an IC50 or EC50 that approximates it; ≥ and ≤ were set here for values at or beyond the usual limits of such assays
[22] = molecular target: HLA-B*08:03; assay: as above; details: source organism: Giardia lamblia ATCC 50803
[23] = molecular target: HLA-B*15:01; assay: as above
[24] = molecular target: HLA-A*69:01; assay: as above
[25] = molecular target: HLA-A*26:03; assay: as above
[26] = molecular target: HLA-A*68:02; assay: as above
[27] = molecular target: HLA-B*07:02; assay: IEDB peptide-MHC binding, purified MHC/competitive/fluorescence; filed as Kd, often an IC50 or EC50 that approximates it; ≥ and ≤ were set here for values at or beyond the usual limits of such assays; details: source organism: Giardia lamblia ATCC 50803
[28] = molecular target: HLA-B*51:01; assay: IEDB peptide-MHC binding, purified MHC/direct/fluorescence; filed as Kd, often an IC50 or EC50 that approximates it; ≥ and ≤ were set here for values at or beyond the usual limits of such assays; details: source organism: Mycobacterium tuberculosis
[29] = molecular target: HLA-B*39:01; assay: IEDB peptide-MHC binding, purified MHC/competitive/fluorescence; filed as Kd, often an IC50 or EC50 that approximates it; ≥ and ≤ were set here for values at or beyond the usual limits of such assays; details: source organism: Mycobacterium tuberculosis variant bovis BCG str. Pasteur 1173P2
[30] = molecular target: HLA-C*07:02; assay: IEDB peptide-MHC binding, purified MHC/direct/fluorescence; filed as Kd, often an IC50 or EC50 that approximates it; ≥ and ≤ were set here for values at or beyond the usual limits of such assays; details: source organism: Homo sapiens
[31] = molecular target: HLA-A*01:01; assay: IEDB peptide-MHC binding, purified MHC/competitive/fluorescence; filed as Kd, often an IC50 or EC50 that approximates it; ≥ and ≤ were set here for values at or beyond the usual limits of such assays; details: source organism: Homo sapiens
[32] = molecular target: HLA-A*29:02; assay: as above; details: source organism: Homo sapiens
[33] = molecular target: HLA-A*80:01; assay: as above; details: source organism: Homo sapiens
[34] = molecular target: HLA-B*35:01; assay: IEDB peptide-MHC binding, purified MHC/direct/fluorescence; filed as Kd, often an IC50 or EC50 that approximates it; ≥ and ≤ were set here for values at or beyond the usual limits of such assays; details: source organism: Bacillus anthracis str. A0389
[35] = molecular target: HLA-B*15:02; assay: as above; details: source organism: Bacillus anthracis str. A0389
[36] = molecular target: HLA-B*07:02; assay: as above; details: source organism: Bacillus anthracis
[37] = molecular target: HLA-B*39:01; assay: as above; details: source organism: Bacillus anthracis str. A0389
[38] = molecular target: HLA-A*30:01; assay: IEDB peptide-MHC binding, purified MHC/competitive/fluorescence; filed as Kd, often an IC50 or EC50 that approximates it; ≥ and ≤ were set here for values at or beyond the usual limits of such assays; details: source organism: Bacillus anthracis str. A0389
[39] = molecular target: HLA-A*11:01; assay: as above; details: source organism: Bacillus anthracis str. A0389
[40] = source organism: Salmonella enterica
[41] = source organism: Salmonella enterica subsp. enterica serovar Typhimurium str. LT2
[42] = source organism: Giardia lamblia ATCC 50803
[43] = source organism: Mycobacterium tuberculosis
[44] = source organism: Bacillus anthracis
[45] = source organism: Bacillus anthracis str. A0389

Sequence: EIIFYHPTF
- Kd [1, 40]: ≥ 20 µM
- Kd [2, 41]: ≥ 20 µM
- Kd [3, 40]: ≥ 20 µM
- Kd [4, 40]: 0.107 µM
- Kd [5, 40]: ≥ 20 µM
- Kd [6, 40]: ≥ 20 µM
- Kd [7, 40]: ≥ 20 µM
- Kd [8, 40]: ≥ 20 µM
- Kd [9, 41]: 0.803 µM
- Kd [10]: ≤ 0.001 µM
- Kd [11]: ≥ 20 µM
- Kd [12, 40]: ≥ 20 µM
- Kd [13, 40]: ≥ 20 µM
- Kd [14, 41]: ≥ 20 µM
- Kd [15, 40]: ≥ 20 µM
- Kd [16, 40]: ≥ 20 µM
- Kd [17, 40]: ≥ 20 µM
- Kd [18]: ≥ 20 µM
- Kd [19]: ≥ 20 µM
- Kd ([20]; source organism: Salmonella enterica subsp. enterica serovar Typhi): ≥ 20 µM

Sequence: EIRHRSGIQ
- Kd [1, 42]: ≥ 20 µM
- Kd [21, 42]: ≥ 20 µM
- Kd [3, 42]: ≥ 20 µM
- Kd [4, 42]: ≥ 20 µM
- Kd [5, 42]: ≥ 20 µM
- Kd [6, 42]: ≥ 20 µM
- Kd [22]: ≥ 20 µM
- Kd [23, 42]: ≥ 20 µM
- Kd [7, 42]: ≥ 20 µM
- Kd [8, 42]: ≥ 20 µM
- Kd [24, 42]: ≥ 20 µM
- Kd [25, 42]: ≥ 20 µM
- Kd [12, 42]: ≥ 20 µM
- Kd [13, 42]: 2 µM
- Kd [15, 42]: ≥ 20 µM
- Kd [16, 42]: ≥ 20 µM
- Kd [26, 42]: ≥ 20 µM
- Kd [17, 42]: 6.39 µM
- Kd [27]: 0.41 µM
- Kd [20, 42]: 9 µM

Sequence: RPPMVTSGL
- Kd [1, 43]: ≥ 20 µM
- Kd [21, 43]: ≥ 20 µM
- Kd [3, 43]: ≥ 20 µM
- Kd [4, 43]: ≥ 20 µM
- Kd [5, 43]: ≥ 20 µM
- Kd [6, 43]: ≥ 20 µM
- Kd [28]: ≥ 20 µM
- Kd [23, 43]: ≥ 20 µM
- Kd [7, 43]: ≥ 20 µM
- Kd [8, 43]: ≥ 20 µM
- Kd [24, 43]: ≥ 20 µM
- Kd [12, 43]: ≥ 20 µM
- Kd [13, 43]: ≥ 20 µM
- Kd ([14]; source organism: Mycobacterium tuberculosis str. Haarlem): ≥ 20 µM
- Kd [15, 43]: ≥ 20 µM
- Kd [16, 43]: ≥ 20 µM
- Kd [17, 43]: ≥ 20 µM
- Kd [29]: ≥ 20 µM
- Kd ([20]; source organism: Mycobacterium tuberculosis variant bovis BCG str. Pasteur 1173P2): ≥ 20 µM

Sequence: YYSNKAYQY
- Kd [30]: 0.15 µM
- Kd [31]: ≥ 20 µM
- Kd [32]: ≤ 0.0001 µM
- Kd [33]: 0.373 µM

Sequence: KLYVNGKAY
- Kd [1, 44]: ≥ 20 µM
- Kd [34]: 1.63 µM
- Kd [2, 45]: ≥ 20 µM
- Kd [3, 44]: ≥ 20 µM
- Kd [4, 44]: 0.0024 µM
- Kd [35]: 0.117 µM
- Kd [6, 44]: ≥ 20 µM
- Kd [36]: ≥ 20 µM
- Kd [23, 44]: 0.298 µM
- Kd [7, 44]: 0.507 µM
- Kd [8, 44]: ≥ 20 µM
- Kd [24, 44]: ≥ 20 µM
- Kd [9, 45]: ≥ 20 µM
- Kd [25, 45]: ≥ 20 µM
- Kd [37]: ≥ 20 µM
- Kd [12, 44]: ≥ 20 µM
- Kd [13, 44]: 0.032 µM
- Kd [15, 44]: 6 µM
- Kd [16, 44]: ≥ 20 µM
- Kd [26, 44]: ≥ 20 µM
- Kd [38]: 0.4 µM
- Kd [39]: ≥ 20 µM
